We go through 1 molecule from paper doi:10.1101/2022.04.10.487811 (bioRxiv, 2022).

The target of the assay is SARS-CoV-2 Beta-variant Spike with six stabilizing proline substitutions (S-6P) (SARS-CoV-2 Beta variant, strain). In words: BLI.

B1: C143 variant VL T33N-G53V, IgG (antibody, V domains shown)
VH: EVQLVESGGGLVQPGGSLRLSCAASGFSVSTKYMTWVRQAPGKGLEWVSVLYSGGSDYYADSVKGRFTISRDNSKNALYLQMNSLRVEDTGVYYCARDSSEVRDHPGHPGRSVGAFDIWGQGTMVTVSS
VL: QSALTQPASVSGSPGQSITISCTGTSNDVGSYNLVSWYQQYPGKAPKLLIFEVTKRSSGISNRFSGSKSGNTASLTISGLQGEDEADYYCCSYAGASTFVFGGGTKLTVL
As to B1, the binding result is reported as “binds”.
